From patent US20210292433A1 (MUSC FOUNDATION FOR RESEARCH DEVELOPMENT, published 2021) come the findings set out here.

For this assay, the target named is T1, human GARP (Glycoprotein A Repetitions Predominant, LRRC32) stably expressed on Pre-B (70Z/3) cells (human, UniProt Q14392 20-662).
T1 construct: whole, on cells; also called hGARP; huGARP
T1 sequence (looked up): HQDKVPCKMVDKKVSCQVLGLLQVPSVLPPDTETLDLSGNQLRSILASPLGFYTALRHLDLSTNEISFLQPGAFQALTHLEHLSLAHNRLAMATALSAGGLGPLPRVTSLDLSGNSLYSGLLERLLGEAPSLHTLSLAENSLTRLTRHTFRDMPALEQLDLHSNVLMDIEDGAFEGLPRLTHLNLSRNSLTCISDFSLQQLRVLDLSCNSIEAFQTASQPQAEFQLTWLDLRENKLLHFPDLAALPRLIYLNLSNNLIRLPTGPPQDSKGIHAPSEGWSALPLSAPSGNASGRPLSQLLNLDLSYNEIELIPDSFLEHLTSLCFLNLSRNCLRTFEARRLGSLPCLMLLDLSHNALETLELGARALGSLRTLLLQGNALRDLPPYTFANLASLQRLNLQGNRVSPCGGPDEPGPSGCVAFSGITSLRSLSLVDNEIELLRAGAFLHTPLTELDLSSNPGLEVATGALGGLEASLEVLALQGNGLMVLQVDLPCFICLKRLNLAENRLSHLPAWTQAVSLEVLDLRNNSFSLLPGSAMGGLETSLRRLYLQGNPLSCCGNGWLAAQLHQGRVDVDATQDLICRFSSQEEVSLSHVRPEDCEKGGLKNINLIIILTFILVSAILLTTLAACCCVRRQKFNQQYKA
Put plainly: flow cytometry on Pre-B cells stably expressing human GARP (FIG. 7A). A general note: In flow cytometry, cells or beads pass a laser one at a time.

B1: 5C5 anti-GARP monoclonal antibody (antibody, V domains shown)
VH: EVKLVESGGGSVKPGGSLKLSCAASGFTFSNYVMSWVRQTPEKRLEWVATISSGGSYTYYPDSVKGRLTISRDNAKNTLYLQMSSLRSEDTAMYYCARGYDNGDYVMDYWGQGTSVTVSS
VL: DIVLTQSPASLAVSLGQRATISCRASESVDTYGNSFMHWYQQIPGQPPKVLIYRASNLESGIPARFSGSGSRTDFTLTINPVEAGDVATYYCQQTNEHPPTFGGGTKLEIK
notes: Mouse hybridoma mAb; also called 5C5 (IgG2a)
For the molecule B1, the binding result was “binds”.
